Assay results from PMC6232856.

Target: rabbit skeletal muscle actin, polymerised (F-actin) (rabbit) (UniProt P68135)
Assay: co-sedimentation

Chain of human espin 3A with the USH1M variant p.790_795delRRDLLR, N-terminally 6xHis-tagged (natural protein) (B1AK53 whole entry, stated change not applied): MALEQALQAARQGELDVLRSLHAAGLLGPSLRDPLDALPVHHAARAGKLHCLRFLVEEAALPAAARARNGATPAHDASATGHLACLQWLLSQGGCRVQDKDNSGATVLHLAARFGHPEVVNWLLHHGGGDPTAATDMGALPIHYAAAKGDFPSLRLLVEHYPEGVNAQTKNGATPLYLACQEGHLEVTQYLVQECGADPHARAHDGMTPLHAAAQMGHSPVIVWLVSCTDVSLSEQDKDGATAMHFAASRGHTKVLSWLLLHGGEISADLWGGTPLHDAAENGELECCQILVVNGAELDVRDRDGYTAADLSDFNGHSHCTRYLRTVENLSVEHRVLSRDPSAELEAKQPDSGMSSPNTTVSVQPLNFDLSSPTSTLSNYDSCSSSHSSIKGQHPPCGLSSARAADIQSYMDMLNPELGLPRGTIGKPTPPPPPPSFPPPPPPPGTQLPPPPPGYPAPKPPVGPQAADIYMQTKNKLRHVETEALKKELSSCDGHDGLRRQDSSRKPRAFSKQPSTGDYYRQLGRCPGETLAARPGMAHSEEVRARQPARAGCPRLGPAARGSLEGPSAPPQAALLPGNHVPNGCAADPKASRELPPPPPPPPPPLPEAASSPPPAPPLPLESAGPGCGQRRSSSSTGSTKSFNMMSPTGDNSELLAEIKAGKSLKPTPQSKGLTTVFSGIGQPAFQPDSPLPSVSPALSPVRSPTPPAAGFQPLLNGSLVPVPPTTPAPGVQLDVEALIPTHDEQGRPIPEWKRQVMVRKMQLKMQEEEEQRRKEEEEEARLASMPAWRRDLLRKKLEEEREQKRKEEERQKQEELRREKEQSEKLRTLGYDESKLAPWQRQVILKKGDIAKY

A percent of espin cosedimented with F-actin of 15% was found for “human espin 3A with the USH1M variant p.790_795delRRDLLR, N-terminally 6xHis-tagged (natural protein)” in this work.
A percent of espin cosedimented with F-actin of 45% was found for “human espin 3A, wild type, N-terminally 6xHis-tagged (natural protein)” in this work.
